In patent publication US12454527B2, “Conjugate monomethyl auristatin E to obtain a composition for treatment of prostate cancer” (priority 2019, dated 2025):
Values joined by “and” are separate entries in the source; they are usually repeats but may differ in a detail not shown here. Equal values may be shown once. Read-outs that look alike come from different tables or passages of the source. Starred links: 1 amine or outer side, 2 acyl side, 3 side chain; linkers in the order of their positions; H or OH if unused. Non-standard residues stand in square brackets, D forms with d. Residues, ends and D or L forms follow the SMILES beside them. ξ: configuration not given here. *: point of attachment. GluureaLys(ε-3-ClBenzyl) = O=C(O)CC[C@H](NC(=O)N[C@@H](CCCCN(Cc1cccc(Cl)c1)*)C(=O)O)C(=O)O; Dolaproine = CO[C@@H]([C@@H]1CCCN1)[C@@H](C)C(=O)O; Dil = CC[C@H](C)[C@H](NC)[C@@H](CC(=O)O)OC; X1 = O=C(CCCc1cn(CCCN[*:1])nn1)[*:2]; PABC = O=C(OCc1ccc(N[*:1])cc1)[*:2]; X2 = C[C@@H](N*)[C@@H](O)c1ccccc1; Cit = NC(=O)NCCC[C@H](N)C(=O)O; Suc = O=C(CCC(=O)[*:2])[*:1]; NMeV = CN[C@H](C(=O)O)C(C)C; ξV = CC(C)C(N)C(=O)O; Ahx = NCCCCCC(=O)O

How the values were obtained:
[1] = Pharmacokinetics in plasma of rats after a single injection; assay type: in vivo; conditions: for level at 0.5 h: 0.50 hour
Protocol: The pharmacokinetics study for the Conjugate (I) product in plasma of rabbits and rats after a single injection.
The leporids and rodents are the standard targets for preclinical studies of potential drug products as well as determining the pharmacokinetic parameters. The rabbits and rats are recommended as test systems to study pharmacokinetic properties of pharmaceutical products by the regulatory documents (FIG. 7, FIG. 8).
This study was performed on healthy awake white outbred mature male rats aged about 3 months with body weight of 190-210 g. […] The pharmacokinetic data, determined from this number of test animals, are sufficient to obtain the primary quantitative characteristics of test product distribution and elimination and the calculation of descriptive statistics parameters.
• 1. Conjugate (1) • 2. Solubilizer Pluronic F127—in the amount, five-fold greater than the conjugate amount by weight. • 3, Diluent—Haemodes infusion solution. • Dimethyl sulfoxide—in the amount of 5% of the prepared volume. • Rabbit experiment (see Tables 5, 6), • Rat experiment (see Tables 7, 8).

[2] = Assessment of the tolerability in the 22Rv1 xenograft study (body weight, survival, general health); assay type: in vivo, mice; conditions: 0.3 mg/kg, in g (unit assumed)
[3] = male, white outbred, rat, plasma, rats N=6, read-out: Concentration in blood plasma, Geometr. mean
[4] = male, white outbred, rat, plasma, rats N=6, read-out: Concentration in blood plasma, Mean value
[5] = male, white outbred, rat, plasma, rats N=6, read-out: Concentration in blood plasma, Median
[6] = male, white outbred, rat, plasma, rats, read-out: Concentration in blood plasma (individual animals)

## CC[C@H](C)[C@@H]([C@@H](CC(=O)N1CCC[C@H]1[C@H](OC)[C@@H](C)C(=O)N[C@H](C)[C@@H](O)c1ccccc1)OC)N(C)C(=O)[C@@H](NC(=O)[C@H](C(C)C)N(C)C(=O)OCc1ccc(NC(=O)[C@H](CCCNC(N)=O)NC(=O)C(NC(=O)CCCc2cn(CCCNC(=O)[C@H](Cc3ccc(O)cc3)NC(=O)[C@H](Cc3ccccc3)NC(=O)CCC(=O)NCCCCCC(=O)N(CCCC[C@H](NC(=O)N[C@@H](CCC(=O)O)C(=O)O)C(=O)O)Cc3cccc(Cl)c3)nn2)C(C)C)cc1)C(C)C (stereo partly drawn) [Conjugate (I)] ({GluureaLys(ε-3-ClBenzyl)-Ahx-Suc}-FY[X1][ξV][Cit][PABC][NMeV]V[Dil][Dolaproine]-X2)
[1]; male, white outbred, rat, plasma, intravenous, 1.5 mg/kg, rats, individual animals
  half-life: 4.11 h
[1]; male, white outbred, rat, plasma, intravenous, 1.5 mg/kg, rats, individual animals, read-out: MRT 0-t
  MRT last: 3.98 h
[1]; [3]
  level at 0.08 h: 19000 ng/mL
  level at 0.25 h: 17000 ng/mL
  level at 0.5 h: 16200 ng/mL
  level at 1 h: 13400 ng/mL
  level at 2 h: 10900 ng/mL
  level at 3 h: 7480 ng/mL
  level at 8 h: 3260 ng/mL
  level at 10 h: 2300 ng/mL
  level at 12 h: 1760 ng/mL
[1]; [4]
  level at 0.08 h: 26100 ng/mL
  level at 0.25 h: 19900 ng/mL
  level at 0.5 h: 18000 ng/mL
  level at 1 h: 15200 ng/mL
  level at 2 h: 11500 ng/mL
  level at 3 h: 7680 ng/mL
  level at 8 h: 3350 ng/mL
  level at 10 h: 2370 ng/mL
  level at 12 h: 1820 ng/mL
[1]; [5]
  level at 0.08 h: 19100 ng/mL
  level at 0.25 h: 18000 ng/mL
  level at 0.5 h: 14300 ng/mL
  level at 1 h: 12500 ng/mL
  level at 2 h: 10500 ng/mL
  level at 3 h: 7470 ng/mL
  level at 8 h: 3190 ng/mL
  level at 10 h: 2090 ng/mL
  level at 12 h: 1620 ng/mL
[1]; male, white outbred, rat, plasma, rats N=6, 1.50 hour, read-out: Concentration in blood plasma, Geometr. mean
  level at 1.5 h: 10700 ng/mL
[1]; male, white outbred, rat, plasma, rats N=6, 1.50 hour, read-out: Concentration in blood plasma, Mean value
  level at 1.5 h: 11600 ng/mL
[1]; male, white outbred, rat, plasma, rats N=6, 1.50 hour, read-out: Concentration in blood plasma, Median
  level at 1.5 h: 10700 ng/mL
[1]; male, white outbred, rat, plasma, rats N=6, 4.00 hour, read-out: Concentration in blood plasma, Geometr. mean
  level at 4 h: 5730 ng/mL
[1]; male, white outbred, rat, plasma, rats N=6, 4.00 hour, read-out: Concentration in blood plasma, Mean value
  level at 4 h: 5860 ng/mL
[1]; male, white outbred, rat, plasma, rats N=6, 4.00 hour, read-out: Concentration in blood plasma, Median
  level at 4 h: 5840 ng/mL
[1]; male, white outbred, rat, plasma, rats N=6, 6.00 hour, read-out: Concentration in blood plasma, Geometr. mean
  level at 6 h: 4390 ng/mL
[1]; male, white outbred, rat, plasma, rats N=6, 6.00 hour, read-out: Concentration in blood plasma, Mean value
  level at 6 h: 4500 ng/mL
[1]; male, white outbred, rat, plasma, rats N=6, 6.00 hour, read-out: Concentration in blood plasma, Median
  level at 6 h: 4240 ng/mL
[1]; [6]
  level at 8 h: 2620 ng/mL
  level at 10 h: 2000 ng/mL
[1]; rats, 1.50 hour
  Concentration in blood plasma (individual animals): 8007 ng/mL
[1]; rats, 4.00 hour
  Concentration in blood plasma (individual animals): 5834 ng/mL and 5880 ng/mL
[1]; rats, 6.00 hour
  Concentration in blood plasma (individual animals): 4247 ng/mL
[1]; rats, individual animals
  AUC0-t: 60334 ng·h/mL and 45653 ng·h/mL and 95993 ng·h/mL and 110564 ng·h/mL and 83377 ng·h/mL and 57819 ng·h/mL
  AUC0-∞: 69475 ng·h/mL and 54945 ng·h/mL and 115670 ng·h/mL and 121598 ng·h/mL and 96420 ng·h/mL and 69132 ng·h/mL
  C0: 14307 ng/mL and 5351 ng/mL and 25202 ng/mL and 96531 ng/mL and 27501 ng/mL and 15195 ng/mL
  T1/2: 5.10 h and 5.00 h and 4.49 h and 4.13 h and 5.14 h
  Vd: 0.12816 L/kg and 0.20101 L/kg and 0.09361 L/kg and 0.07983 L/kg and 0.09261 L/kg and 0.16076 L/kg
[2]; day 0 after treatment initiated
  Body weight of mice (M ± m): 22.2 ± 0.53
[2]; day 2
  Body weight of mice (M ± m): 21.2 ± 0.36
[2]; day 4
  Body weight of mice (M ± m): 18.0 ± 0.48
